According to patent publication US20220185898A1 (Alector, published 2022):
Numbering of substitutions follows the chain as printed.

B1: S-55 (antibody, V domains shown)
VH: QVQLQESGPGLVKPSETLSLTCAVSGYSISSGYYWGWIRQPPGKGLEWIGSIYHSGSTYYNPSLKSRVTISVDTSKNQFSLKLSSVTAADTAVYYCARGRPELGWDKYFQHWGQGTLVTVSS
VL: DIQMTQSPSSVSASVGDRVTITCRASQGISRWLAWYQQKPGKAPKLLIYAASSLQSGVPSRFSGSGSGTDFTLTISSLQPEDFATYYCQQANALPTFGGGTKVEIK
notes: IgG
B2: S-73 (antibody, V domains shown)
VH: QVQLQESGPGLVKPSQTLSLTCTVSGGSISSGTYYWSWIRQHPGKGLEWIGYIYYSGSTYYNPSLKSRVTISVDTSKNQFSLKLSSVTAADTAVYYCARGVGRYRVADYWGQGTLVTVSS
VL: EIVLTQSPATLSLSPGERATLSCRASQSVSSYLAWYQQKPGQAPRLLIYDASNRATGIPARFSGSGSGTDFTLTISSLEPEDFAVYYCQQASVYPPITFGGGTKVEIK
notes: IgG
B3: S-69 (antibody, V domains shown)
VH: QVQLQESGPGLVKPSQTLSLTCTVSGGSISSGGYYWSWIRQHPGKGLEWIGYIYYSGSTYYNPSLKSRVTISVDTSKNQFSLKLSSVTAADTAVYYCARDRGGTHFGADHYYYGMDVWGQGTMVTVSS
VL: EIVMTQSPATLSVSPGERATLSCRASQSVSSSLAWYQQKPGQAPRLLIYGASTRATGIPARFSGSGSGTEFTLTISSLQSEDFAVYYCQQAADWPITFGGGTKVEIK
notes: IgG
B4: S-4 (antibody, V domains shown)
VH: not shown
VL: B3 VL with S32N, A91F, A92R, D93V, W94L, I96P
notes: IgG
B5: S-58 (antibody, V domains shown)
VH: QVQLQESGPGLVKPSETLSLTCAVSGYSISSGYYWGWIRQPPGKGLEWIGSIYHSGNTYYNPSLKSRVTISVDTSKNQFSLKLSSVTAADTAVYYCARGPPELGKMYFQHWGQGTLVTVSS
VL: B3 VL with M4L, S32N, A91D, A92R, D93K, W94G, I96L
notes: IgG
B6: S-61 (antibody, V domains shown)
VH: QVQLQESGPGLVKPSETLSLTCAVSGYSISSGYYWGWIRQPPGKGLEWIGSIYHSGSTYYNPSLKSRVTISVDTSKNQFSLKLSSVTAADTAVYYCARGSPRFYYGSGSYLDLFDIWGQGTMVTVSS
VL: B3 VL with S32N, Q90E, A91Y, A92L, D93N, W94Y
notes: IgG
B7: S-9 (antibody, V domains shown)
VH: QVQLVQSGAEVKKPGASVKVSCKASGYTFTSYGISWVRQAPGQGLEWMGWISAYNGNTNYAQKLQGRVTMTTDTSTSTAYMELRSLRSDDTAVYYCARDPGGYGPTLYYYYGMDVWGQGTTVTVSS
VL: B3 VL with S32N, A91Y, A92N, D93I, W94Y, I96L
notes: IgG
B8: S-78 (antibody, V domains shown)
VH: QLQLQESGPGLVKPSETLSLTCTVSGGSISSSDYYWGWIRQPPGKGLEWIGSIYYSGSTYYNPSLKSRVTISVDTSKNQFSLKLSSVTAADTAVYYCARSLAMSGAYFDLWGRGTLVTVSS
VL: not shown
notes: IgG
B9: S-51 (antibody, V domains shown)
VH: QVQLVESGGGVVQPGRSLRLSCAASGFTFSSYGMHWVRQAPGKGLEWVAVISYDGSNKYYADSVKGRFTISRDNSKNTLYLQMNSLRAEDTAVYYCAKGLEYYDSSRLYYPYYYYMDVWGKGTTVTVSS
VL: EIVLTQSPATLSLSPGERATLSCRASQSVSSYLAWYQQKPGQAPRLLIYDASKRATGIPARFSGSGSGTDFTLTISSLEPEDFAVYYCQQRSNYPITFGGGTKVEIK
notes: IgG
B10: S-10 (antibody, V domains shown)
VH: B7 VH
VL: EIVMTQSPATLSVSPGERATLSCRASQSVSSNLAWYQQKPGQAPRLLIYGASTRATGIPARFSGSGSGTEFTLTISSLQSEDFAVYYCQQYADWPPITFGGGTKVEIK
notes: IgG
B11: S-64 (antibody, V domains shown)
VH: QVQLQESGPGLVKPSETLSLTCAVSGYSISSGYYWGWIRQPPGKGLEWIGSIYHSGSTYYNPSLKSRVTISVDTSKNQFSLKLSSVTAADTAVYYCARAEHRGPRYFDLWGRGTLVTVSS
VL: DIQMTQSPSSLSASVGDRVTITCRASQSINSYLNWYQQKPGKAPKLLIYAASSLQSGVPSRFSGSGSGTDFTLTISSLQPEDFATYYCQQLDSTPITFGGGTKVEIK
notes: IgG
B12: S-76 (antibody, V domains shown)
VH: QVQLQESGPGLVKPSQTLSLTCTVSGGSISSGGYYWSWIRQHPGKGLEWIGSIYYSGSTYYNPSLKSRVTISVDTSKNQFSLKLSSVTAADTAVYYCARGVGIQQQLVLGFDPWGQGTLVTVSS
VL: B11 VL with N30S, Y32F, Y49S, L91S, D92Y, S93R, T94E
notes: IgG
B13: S-65 (antibody, V domains shown)
VH: B11 VH with A99E, E100G, H101Q, R102L, G103P, P104T, R105G, Y106T, L109Y, R112Q
VL: not shown
notes: IgG
B14: S-84 (antibody, V domains shown)
VH: QLQLQESGPGLVKPSETLSLTCTVSGGSISSSSYYWGWIRQPPGKGLEWIGSISYSGSTYYNPSLKSRVTISVDTSKNQFSLKLSSVTAADTAVYYCARGGTTWLVADVWGQGTMVTVSS
VL: not shown
notes: IgG
B15: S-74 (antibody, V domains shown)
VH: B2 VH
VL: B2 VL with L4M, A51S, A91E, S92T, V93N, Y94M
notes: IgG
B16: S-83 (antibody, V domains shown)
VH: QLQLQESGPGLVKPSETLSLTCTVSGGSISSSSYYWGWIRQPPGKGLEWIGSIYYSGSTYYNPSLKSRVTISVDTSKNQFSLKLSSVTAADTAVYYCARGSPTWLRDYYMDVWGKGTTVTVSS
VL: B3 VL with M4L, S32N, A91Y, A92N, D93A, W94F, I96P
notes: IgG
B17: S-81 (antibody, V domains shown)
VH: QLQLQESGPGLVKPSETLSLTCTVSGGSISSSSYYWGWIRQPPGKGLEWIGSIYYSGSTYYNPSLKSRVTISVDTSKNQFSLKLSSVTAADTAVYYCARERWDLGHGMDVWGQGTTVTVSS
VL: not shown
notes: IgG
B18: S-40 (antibody, V domains shown)
VH: not shown
VL: B9 VL with L4M, K53N, N93A, Y94L, I96F
notes: IgG
B19: S-26 (antibody, V domains shown)
VH: EVQLVESGGGLVKPGGSLRLSCAASGFTFSSYSMNWVRQAPGKGLEWVSSISSSSSYIYYADSVKGRFTISRDNAKNSLYLQMNSLRAEDTAVYYCARDRLGRGYKWNWFDPWGQGTLVTVSS
VL: DIQMTQSPSSVSASVGDRVTITCRASQGIDSWLAWYQQKPGKAPKLLIYAASSLQSGVPSRFSGSGSGTDFTLTISSLQPEDFATYYCQQGNSLPPITFGGGTKVEIK
notes: IgG
B20: S-16 (antibody, V domains shown)
VH: QVQLVQSGAEVKKPGSSVKVSCKASGGTFSSYAISWVRQAPGQGLEWMGGIIPIFGTANYAQKFQGRVTITADESTSTAYMELSSLRSEDTAVYYCARSPYSGTRDFDLWGRGTLVTVSS
VL: B11 VL with L11V, S28G, N30S, Y32W, N34A, S53N, L91G, D92N, T94Y
notes: IgG
B21: S-12 (antibody, V domains shown)
VH: QVQLVQSGAEVKKPGASVKVSCKASGYTFTSYGISWVRQAPGQGLEWMGWISAYNGNTNYAQKLQGRVTMTTDTSTSTAYMELRSLRSDDTAVYYCARDLPKYKWGWFDPWGQGTLVTVSS
VL: not shown
notes: IgG
B22: S-6 (antibody, V domains shown)
VH: not shown
VL: B3 VL with S32N, A91V, D93N, W94Y, I96R
notes: IgG; also called S-06

target: T1, mouse Sortilin Fc fusion protein (mouse; human, UniProt Q6PHU5 74-754); experiment: ForteBio, avid;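 further: whole IgG captured on AHQ sensors, then contacted with Sortilin Fc fusion antigen at 100 nM, followed by an off-rate phase in buffer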
T1 construct: whole entry named; also called mSort-Fc
Procedure: (§1) The affinity for the Sortilin antibodies was determined by measuring their KD by ForteBio. […] Briefly, ForteBio affinity measurements were performed by loading IgGs on-line onto AHQ sensors. Sensors were equilibrated off-line in assay buffer for 30 min and then monitored on-line for 60 seconds for baseline establishment. For avid binding measurement, sensors with loaded IgGs were exposed to 100 nM antigen (human or mouse Sortilin Fc fusion) for 3, afterwards they were transferred to assay buffer for 3 min for off-rate measurement.
(§2) The binding affinity of each anti-Sortilin antibody was determined by measuring their KD by ForteBio or MSD-SET at room temperature. […] Briefly, ForteBio affinity measurements were performed by loading IgGs on-line onto AHQ sensors. Sensors were equilibrated off-line in assay buffer for 30 min and then monitored on-line for 60 seconds for baseline establishment. Sensors with loaded IgGs were exposed to 100 nM antigen for 5 minutes, then transferred to assay buffer for 5 min for off-rate measurement. Kinetics were analyzed using the 1:1 binding model.

Going from B1 to B2, the Kd rises from 1.13 nM to 19.7 nM (17-fold). The first binds more tightly here.

First: B3
Second: B4
The Kd of the first is 13-fold higher: 20.1 nM for the first, 1.55 nM for the second. The second binds more tightly here.

Going from B5 to B6, the Kd rises from 0.8 nM to 2.45 nM (3.1-fold). The first binds more tightly here.

Going from B7 to B8, the Kd rises from 2.16 nM to 10.6 nM (4.9-fold). The first binds more tightly here.

First: B9
Second: B10
The Kd of the first is 1.9-fold lower: 1.21 nM for the first, 2.29 nM for the second. The first binds more tightly here.

B11 and B12 are within 1.5-fold of each other in Kd: 24.2 nM for the first, 19 nM for the second.

Work on B13 yielded a Kd of 6.9 nM.

target: T2, human Sortilin Fc fusion protein (human, UniProt Q99523 78-755); experiment: ForteBio, avid;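 further: whole IgG captured on AHQ sensors, then contacted with Sortilin Fc fusion antigen at 100 nM, followed by an off-rate phase in buffer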
T2 construct: whole entry named; also called hSort-Fc
Procedure: as §1, §2

Compared with B14, B1 is 1.9-fold lower in Kd: 4.4 nM for the first, 2.28 nM for the second.

B2 and B15 are within 1.5-fold of each other in Kd: 3.33 nM for the first, 3.05 nM for the second.

B3 and B4 are within 1.5-fold of each other in Kd: 4.29 nM for the first, 4.5 nM for the second.

B5 and B16 are within 1.5-fold of each other in Kd: 2.59 nM for the first, 1.79 nM for the second.

Compared with B6, B7 is 1.6-fold higher in Kd: 4.26 nM for the first, 6.98 nM for the second.

First: B17
Second: B8
The Kd of the first is 1.6-fold lower: 2.2 nM for the first, 3.51 nM for the second.

Going from B9 to B18, the Kd falls from 4.12 nM to 2.43 nM (1.7-fold).

Going from B10 to B19, the Kd falls from 11 nM to 2.88 nM (3.8-fold). The second binds more tightly here.

First: B20
Second: B21
The Kd of the first is 2.5-fold lower: 3.8 nM for the first, 9.35 nM for the second. The first binds more tightly here.

target: T3, mouse Sortilin expressed on 293 / HEK293T cells (mouse, UniProt Q6PHU5 74-825); experiment: FACS, 293 cells;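 further: antibodies at 10 µg/ml bound to cells for 1 h on ice, detected with PE-labelled anti-human secondary antibody by flow cytometry, reported as mean fluorescence intensity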
T3 construct: full-length recombinant mouse Sortilin; also called mSort; msSort
Procedure: (§3) Cells were harvested, plated at 10⁵/ml in a 96 well plate, washed, and incubated in 100 μl PBS containing 10 μg/ml Mab and 2% FBS for 1 hour in ice. Cells were then washed twice and incubated in 100 μl PBS+2% FBS containing 5 μg/ml PE-conjugated anti-human secondary antibody for 30 minutes in ice. Cells were washed twice in cold PBS and data was acquired on a BD FACS Canto. Data analysis and calculation of MFI values was performed with FlowJo (TreeStar) software version 10.0.7.

Going from B14 to B1, the MFI rises from 15400 to 21400.

First: B2
Second: B15
The MFI of the first is higher: 7670 for the first, 7300 for the second.

Going from B22 to B3, the MFI falls from 25600 to 1890.

Compared with B4, B5 is lower in MFI: 15700 for the first, 15100 for the second.

Compared with B6, B7 is higher in MFI: 21800 for the first, 22200 for the second.

Going from B17 to B8, the MFI falls from 16600 to 7930.

Compared with B9, B18 is lower in MFI: 21900 for the first, 2630 for the second.

First: B10
Second: B19
The MFI of the first is lower: 19400 for the first, 20900 for the second.

Going from B12 to B13, the MFI rises from 4180 to 17900.

In the case of B21, the MFI is reported as 18800.

target: T4, human Sortilin expressed on 293 / HEK293T cells (human, UniProt Q99523 78-830); experiment: FACS, 293 cells;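 further: antibodies at 10 µg/ml bound to cells for 1 h on ice, detected with PE-labelled anti-human secondary antibody by flow cytometry, reported as mean fluorescence intensity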
T4 construct: full-length recombinant human Sortilin; also called hSort; SORT1
Procedure: as §3

First: B14
Second: B1
The MFI of the first is lower: 9240 for the first, 9480 for the second.

First: B2
Second: B15
The MFI of the first is lower: 8070 for the first, 9210 for the second.

Compared with B22, B3 is lower in MFI: 11100 for the first, 8580 for the second.

Compared with B4, B5 is lower in MFI: 9120 for the first, 7770 for the second.

Compared with B16, B6 is lower in MFI: 9300 for the first, 7480 for the second.

Going from B7 to B17, the MFI falls from 10300 to 8940.

Going from B8 to B9, the MFI rises from 7120 to 12200.

Going from B18 to B10, the MFI rises from 7410 to 8660.

Compared with B19, B11 is lower in MFI: 9020 for the first, 7930 for the second.

Compared with B20, B12 is higher in MFI: 6280 for the first, 9680 for the second.

First: B13
Second: B21
The MFI of the first is lower: 8070 for the first, 9760 for the second.
